Laboratory results published in PMC4968834, “Generation and Characterization of an IgG4 Monomeric Fc Platform” (PLoS ONE, 2016).
Read-outs that look alike come from different tables or passages of the source.

Legend:
[1] = molecular target: Clone 4 (C4), monomeric IgG4 Fc with YTE; test: BLI; Octet384; binding of inactive IdeS (C94S) to Fc; who was immobilised not told
[2] = molecular target: T1, Recombinant human FcRn (soluble) (human, UniProt P55899 24-297; P61769 21-119, biotin (biotinylated FcRn; which chain and site not stated)); test: BLI; Octet384; biotinylated FcRn captured on streptavidin biosensors, Fc variants in solution; 100 mM MES pH 6.0, 3 mg/ml BSA, 0.05% Tween 20; steady-state analysis, apparent KD, avidity binding format
[3] = molecular target: T1, Recombinant human FcRn (soluble); test: cell-based or functional assay

Kd [2] [µM] | Molecule | other results
– | Inactive form of IgG-degrading enzyme of S. pyogenes (IdeS, C94S) | Kd [1]: 3 µM
0.039 | IgG1 YTE (antibody) | –
0.14 | IgG4 wildtype Fc (domain or fragment) | –
0.27 | IgG1 mAb control (antibody) | –
– | Onart-Fab-C4 (Fab of Onartuzumab fused to monomeric Fc C4) (Fc fusion) chain 1: EVQLVESGGGLVQPGGSLRLSCAASGYTFTSYWLHWVRQAPGKGLEWVGMIDPSNSDTRFNPNFKDRFTISADTSKNTAYLQMNSLRAEDTAVYYCATYRSYVTPLDYWGQGTLVTVSSASTKGPSVFPLAPSSKSTSGGTAALGCLVKDYFPEPVTVSWNSGALTSGVHTFPAVLQSSGLYSLSSVVTVPSSSLGTQTYICNVNHKPSNTKVDKKVEPKSCPEFLGGPSVFLFPPKPKDTLYITREPEVTCVVVDVSQEDPEVQFNWYVDGVEVHNAKTKPREEQFNSTYRVVSVLTVLHQDWLNGKEYKCKVSNKGLPSSIEKTISKAKGQPREPQVYTFPPSQEEMTKNQVSLRCLVKGFYPSDIAVEWESNGQPENNYKTTKPVLDSDGSFRLESRLTVDKSRWQEGNVFSCSVMHEALHNHYTQKSLSLSLGK chain 2: DIQMTQSPSSLSASVGDRVTITCKSSQSLLYTSSQKNYLAWYQQKPGKAPKLLIYWASTRESGVPSRFSGSGSGTDFTLTISSLQPEDFATYYCQQYYAYPWTFGQGTKVEIKRTVAAPSVFIFPPSDEQLKSGTASVVCLLNNFYPREAKVQWKVDNALQSGNSQESVTEQDSKDSTYSLSSTLTLSKADYEKHKVYACEVTHQGLSSPVTKSFNRGEC | terminal half-life (T1/2) in hFcRn transgenic mice, 2.5 mg/kg intravenous [3]: 21 h; Kd ([2]; both partners purified): 0.16 µM
